Laboratory results as given in paper PMC4003184 (The Journal of General Physiology, 2014).

Biological target: mouse TRPV4 fused to mCherry (mouse, UniProt Q9EPK8 1-871)
Assay: cross-correlation raster image correlation spectroscopy

mouse TRPV4 fused to mCherry, sequence (Q9EPK8 whole entry, the tested form may be a part): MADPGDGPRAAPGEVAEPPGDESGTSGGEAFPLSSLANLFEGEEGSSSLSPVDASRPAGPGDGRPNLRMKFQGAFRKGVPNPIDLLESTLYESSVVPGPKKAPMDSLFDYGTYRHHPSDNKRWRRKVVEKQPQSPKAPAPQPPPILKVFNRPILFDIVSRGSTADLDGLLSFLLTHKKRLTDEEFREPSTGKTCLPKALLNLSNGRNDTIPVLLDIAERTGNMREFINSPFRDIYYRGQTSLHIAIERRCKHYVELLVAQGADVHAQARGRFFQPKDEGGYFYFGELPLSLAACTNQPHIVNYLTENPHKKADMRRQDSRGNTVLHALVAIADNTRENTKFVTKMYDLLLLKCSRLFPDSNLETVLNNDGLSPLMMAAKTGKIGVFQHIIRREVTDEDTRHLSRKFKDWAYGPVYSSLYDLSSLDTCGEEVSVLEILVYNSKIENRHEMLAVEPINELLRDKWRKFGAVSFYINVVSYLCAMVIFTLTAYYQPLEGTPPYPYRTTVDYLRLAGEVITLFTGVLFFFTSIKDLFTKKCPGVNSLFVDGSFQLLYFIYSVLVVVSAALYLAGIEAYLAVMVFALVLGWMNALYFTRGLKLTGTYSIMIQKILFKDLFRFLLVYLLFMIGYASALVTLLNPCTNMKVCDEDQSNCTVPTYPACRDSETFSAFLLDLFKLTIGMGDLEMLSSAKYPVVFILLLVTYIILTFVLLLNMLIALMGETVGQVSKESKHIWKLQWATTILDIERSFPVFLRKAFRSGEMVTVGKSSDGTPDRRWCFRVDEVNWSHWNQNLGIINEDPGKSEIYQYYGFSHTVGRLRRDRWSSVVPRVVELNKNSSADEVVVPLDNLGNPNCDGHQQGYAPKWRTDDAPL

- cross-correlation ratio (Gcc/[mean of G_(TRPV4) and G_(AKAP)]): 0.4
B1: AKAP150 fused to EGFP (natural protein, UniProt P24587 1-714, looked up)
chain: METSVSEIQIETKDEKRPEAASPQKERQERKTATLCFKRRKKVNKKKAKAGSKTAEETEKHAPEAGGSGQRQPAGAWASIKRLVTHRKPSESAEKQKPSEAEMQPEDGALPKKKTKSKLKIPCIRFSRGAKRSRPSKLTEDSGYVRVQGEADDLEIKAQIQPDEQATQAKSTQGLQEDVIVRDGKEIQESHISNNVISGEHVIGIELELEKESSALRMRTPGSEKEAKVILVKQGVQVQEASVLENSAADSPQPVTSTAPLSPATTHQLGLEEPSDSIRESAPSGKDDGRRKTAAEEKKSGETALGQAEEASSVSQADKSVLSQAEEATVGHTEEATVIQAQSQAKEGKLSQAEEATVAQAKETVLSQAEEVKLSQIEEPAISQAKKATVGQAKEAYVSQAEEAIVGHTEKATMGQAEEATVGHIEKTTVGQAEEATVGQAEEATVGQAEEATVGQAEEATVGQAEEATVGQAGEATVSHIEKTTVGQAEEAIVGQAEEATVGQAEEATVGQAEEATVGQAEEATVDQAEEATVGQAEEATVGQAGEAAVGQAEEAIVAQAEEATVGQAGEATVGQAEKATVGQAEEPIVGQAEETVLRHASDLKVNGVDAEKPRSEESKRMEPIAIIITDTEISEFDVKKSKNVPKQFLISMENEQVGVFANDSDFEGRTSEQYETLLIETASSLVKNAIELSVEQLVNEMVSEDNQINTLFQ
